Experimental data reported in patent publication US20220175921A1 (Bristol-Myers Squibb, published 2022).

T1: human GITR, membrane bound (on activated human T cells or on 3A9-hGITR cells) (human, UniProt Q9Y5U5 26-241)
T1 construct: also called huGITR; TNFRSF18
T1 sequence: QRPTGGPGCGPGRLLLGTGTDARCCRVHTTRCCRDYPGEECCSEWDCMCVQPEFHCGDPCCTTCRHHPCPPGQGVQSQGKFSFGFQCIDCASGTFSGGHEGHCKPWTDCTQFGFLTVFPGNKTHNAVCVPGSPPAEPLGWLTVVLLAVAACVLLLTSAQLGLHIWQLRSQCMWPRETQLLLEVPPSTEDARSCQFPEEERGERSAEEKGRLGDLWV

T2: cynomolgus GITR, membrane bound (on activated cynomolgus T cells) (cynomolgus monkey, UniProt Q9Y5U5 26-241 (human entry))
T2 construct: also called cyno GITR
T2 chain: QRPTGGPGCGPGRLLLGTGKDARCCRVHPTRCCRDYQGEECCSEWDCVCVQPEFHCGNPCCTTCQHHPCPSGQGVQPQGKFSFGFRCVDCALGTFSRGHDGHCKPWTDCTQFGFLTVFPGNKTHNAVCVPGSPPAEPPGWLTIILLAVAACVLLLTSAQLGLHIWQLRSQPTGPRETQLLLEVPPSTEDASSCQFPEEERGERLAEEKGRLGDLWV

T3: recombinant human GITR/Fc (rHGITR/Fc, R&D systems CAT #689-GR) (human, UniProt Q9Y5U5 26-161, limits assumed)
T3 construct: Bought; also called soluble GITR
T3 chain: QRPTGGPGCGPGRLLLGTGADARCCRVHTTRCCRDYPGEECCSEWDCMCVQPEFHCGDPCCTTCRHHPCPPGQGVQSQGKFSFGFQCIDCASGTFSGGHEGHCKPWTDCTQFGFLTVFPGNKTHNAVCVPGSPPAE

T4: mouse GITR (mouse, UniProt O35714 20-228)
T4 construct: whole, on cells; also called muGITR
T4 sequence (looked up): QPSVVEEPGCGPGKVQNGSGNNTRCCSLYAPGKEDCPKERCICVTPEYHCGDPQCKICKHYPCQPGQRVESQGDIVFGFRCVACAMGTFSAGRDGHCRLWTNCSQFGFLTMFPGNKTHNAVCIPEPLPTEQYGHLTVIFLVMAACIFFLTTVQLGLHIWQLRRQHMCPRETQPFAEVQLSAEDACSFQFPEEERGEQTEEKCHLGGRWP


Tests used:
[1] = molecular target: T1, human GITR, membrane bound (on …); test: FACS on activated human T cells
Procedure: (§1) Peripheral Blood Mononuclear Cells (PBMCs) isolated from human or cynomolgus monkey were activated with plate-coated anti-CD3 antibody (Clone: UCHT1 for human T cell activation; Clone: SP34 for cynomolgus T cell activation; both from BD Biosciences) and soluble anti-CD28 antibody (Clone:CD28.2 for both human and cynomolgus monkey, BD Biosciences) for 4 days (human)/or 5 days (cynomolgus monkey). The cells were tested for GITR mAb binding in a fluorescence-activated cell sorting (FACS)-based assay using a phycoerythrin (PE)-conjugated anti-human IgG antibody (Jackson ImmunoResearch). The samples were analyzed on a BD FACS Canto Flow Cytometer.

[2] = molecular target: T2, cynomolgus GITR, membrane bound (on …); test: FACS on activated cynomolgus T cells
Procedure: as §1

[3] = molecular target: T3, recombinant human GITR/Fc (rHGITR/Fc, …); test: SPR; mAb captured (anti-kappa), rHGITR/Fc analyte
Procedure: Binding of anti-GITR antibodies to soluble GITR was determined by Biacore. […] The capture concentration of the mAb/volume was 2-40 μg/mL (5 μL at 10 μL/min). The antigen association time was 5 minutes at 15 μL/min, the antigen dissociation time was 6 minutes, and regeneration was performed with 50 mM HCl/50 mM NaOH (12 μL each at 100 μL/min).

[4] = molecular target: T3, recombinant human GITR/Fc (rHGITR/Fc, …); test: SPR binning with rHGITR/Fc
Procedure: Each antibody concentration series was divided into two halves. […] Complexes were incubated for 2 hours. 40 μL complexes were injected on the antibody coated surface at a 30 μL/min flow rate. […] The data was analyzed using Microsoft Excel where the concentration series of antibodies were plotted against the corresponding response unit to obtain titration curves.

[5] = molecular target: T1, human GITR, membrane bound (on …); test: FACS on PHA-activated human CD4+ and CD8+ T cells, anti-HA detection
Text: (§2) The samples were acquired on a FACS Canto Flow Cytometer (BD, San Jose) and analyzed with FlowJo software (Tree Star, Inc, Ashland, Oreg.).

[6] = molecular target: T1, human GITR, membrane bound (on …); test: FACS; pre-bound GITR-L against 0.5 ug/mL 28F3-hIgG1 (competitor) on activated T cells; partial inhibition
Text: as §2

[7] = molecular target: T1, human GITR, membrane bound (on …); test: cell-based or functional assay
mouse GITR = molecular target: T4, mouse GITR; test: stated in the Treg suppression assay with huGITR KI and wildtype mouse T cells
Text: From the previous experiment it was not clear whether the increased Teff proliferation was due to the anti-GITR antibodies acting on Treg and/or Teff cells. To address this question, human GITR “knock-in” (huGITR KI) mice were used. In these mice, the gene encoding mouse GITR, Tnfrsf18, was replaced with the human TNFRSF18 gene, and human GITR is expressed similarly to muGITR in wildtype mice; human GITR is expressed on both Teff and Treg cells with higher levels on the latter.
Treg and Teff cells were sorted based on CD4 and CD25 expression from huGITR KI and WT mice.

Binder	EC50 [1]	Kd [3]	koff [3]	kon [3]	other results
3C3 (antibody, human IgG1, kappa, V domains shown, Hybridoma-derived; also called GITR.3; 3C3-1) VH: QVQLQQWGAGLLKPSETLSLTCAVYGGSFSGYYWTWIRQPPGKGLEWIGKINHSGNTNYNPSLKSRVTISVDTSKNQFSLKLSSVTAADTAVYYCARLGAFDAFDIWGQGTMVTVSS VL: DIQMTQSPSSLSASVGDRVTITCRASQGISSWLAWYQQKPEKAPKSLIYAASSLQSGVPSRFSGSGSGTDFTLTISSLQPEDFATYYCQQYNSYPYTFGQGTKLEIKR	0.0492 nM				binding result [2]: no binding
18E10 (antibody, human IgG2, kappa, V domains shown, Hybridoma-derived human antibody) VH: QVQLVESGGGVVQPGRSLRLSCAASGFTFSSYGMHWVRQAPGKGLEWVAVIWYAGSNKYYADSVKGRFTISRDNSKNTLYLQMNSLRAEDTAVYYCARGGRIAVAFYYSMDVWGQGTTVTVSS VL: DIQMTQSPSSLSASVGDRVTITCRASQGISSWLAWYQQKPEKAPKSLIYAASSLQSGVPSRFSGSGSGTDFTLTISSLQPEDFATYYCQQYNSYPYTFGQGTKLEIKR	0.146 nM	13.3 nM	0.00241 s⁻¹	182000 M⁻¹ s⁻¹	EC50 [2]: 0.913 nM
19D3 (antibody, human IgG2, kappa, V domains shown, Hybridoma-derived human antibody) VH: QVQLVESGGGVVQPGRSLRLSCAASGFTFSSYGFHWVRQAPGKGLEWVAVIWYAGSNKFYADSVKGRFTISRDNSKNTLYLQMNSLRAEDTAVYYCARGGQLDYYYYYVMDVWGQGTTVTVSS VL: DIQMTQSPSSLSASVGDRVTITCRASQGISSWLAWYQQKPEKAPKSLIYAASSLQSGVPSRFSGSGSGTDFTLTISSLQPEDFATYYCQQYNSYPYTFGQGTKLEIKR	0.363 nM	16.3 nM	0.0045 s⁻¹	276000 M⁻¹ s⁻¹	
14E3 (antibody, V domains shown, Hybridoma-derived human antibody) VH: QVQLQQWGAGLLKPSETLSLTCAVYGGSFSGYYWSWIRQPPGKGLEWIGEINHSGNTYYNPSLKSRVTISVDTSKNQLSLKLSSVTAADTAVYYCARFGSNDAFDIWGQGTMVTVSS VL: DIQMTQSPSSLSASVGDRVTITCRASQGISSWLAWYQQKPEKAPKSLIYAASSLQSGVPSRFSGSGSGTDFTLTISSLQPEDFATYYCQQYNSYPPTFGQGTKVEIKR					binding result [4]: binds
recombinant human GITR ligand trimer (R&D Systems 6987-GL) (ligand, Bought soluble trimer, detected through an HA tag; also called rhGITR-L; hGITR-L trimer) LQLETAKEPCMAKFGPLPSKWQMASSEPPCVNKVSDWKLEILQNGLYLIYGQVAPNANYNDVAPFEVRLYKNKDMIQTLTNKSKIQNVGGTYELHVGDTIDLIFNSEHQVLKNNTYWGIILLANPQFIS					EC50 [5]: 16 ng/mL; IC50 [6]: 2.4 ng/mL
GITR.6.G2.G1f (antibody, human IgG2) heavy: not shown VL: AIQLTQSPSSLSASVGDRVTITCRASQGISSALAWYQQKPGKAPKLLIYDASSLESGVPSRFSGSGSGTDFTLTISSLQPEDFATYYCQQFNSYPYTFGQGTKLEIK					NFKB signaling (phospho-p65) EC50, CD4+ T cells [7]: 9 nM; NFKB signaling (phospho-p65) EC50, CD8+ T cells [7]: 3.77 nM; NFKB signaling (phospho-p65) Emax, CD4+ T cells [7]: 100%; NFKB signaling (phospho-p65) Emax, CD8+ T cells [7]: 92%
28F3 (antibody, human IgG2, kappa, also called 13H2; 28F3 (IgG2)) heavy: QVQLVESGGGVVQPGRSLRLSCAASGFTFSSYGMHWVRQAPGKGLEWVAVIWYEGSNKYYADSVKGRFTISRDNSKNTLYLQMNSLRAEDTAVYYCARGGSMVRGDYYYGMDVWGQGTTVTVSSASTKGPSVFPLAPCSRSTSESTAALGCLVKDYFPEPVTVSWNSGALTSGVHTFPAVLQSSGLYSLSSVVTVPSSNFGTQTYTCNVDHKPSNTKVDKTVERKCCVECPPCPAPPVAGPSVFLFPPKPKDTLMISRTPEVTCVVVDVSHEDPEVQFNWYVDGVEVHNAKTKPREEQFNSTFRVVSVLTVVHQDWLNGKEYKCKVSNKGLPAPIEKTISKTKGQPREPQVYTLPPSREEMTKNQVSLTCLVKGFYPSDIAVEWESNGQPENNYKTTPPMLDSDGSFFLYSKLTVDKSRWQQGNVFSCSVMHEALHNHYTQKSLSLSPGK light: not shown	0.192 nM	14.8 nM	0.00589 s⁻¹	397000 M⁻¹ s⁻¹	NFKB signaling (phospho-p65) EC50, CD4+ T cells [7]: 12.8 nM; NFKB signaling (phospho-p65) EC50, CD8+ T cells [7]: 9 nM; NFKB signaling (phospho-p65) Emax, CD4+ T cells [7]: 69%; NFKB signaling (phospho-p65) Emax, CD8+ T cells [7]: 85%; binding result (mouse GITR): no binding; EC50 [2]: 1.04 nM
8A6 (antibody, human IgG2, kappa, V domains shown, Hybridoma-derived human antibody) VH: QVQLVESGGGVVQPGRSLRLSCTASGFTFSSYGMQWVRQAPGKGLEWVAVIWYEGSNKYYADSVKGRFTISRENSKNTLYLQMNSLRAEDTAVYYCARGGLMVRGLFYYGMDVWGQGTTVTVSS VL: AIQLTQSPSSLSASVGDRVTITCRASQGISSALAWYQQKPGKAPKFLIYDASSLESGVPSRFSGSGSGTDFTLTISSLQPEDFATYYCQQFNSYPYTFGQGTKLEIKR					binding result [4]: binds

The next lines start with results.

EC50 [1]	Kd [3]	koff [3]	kon [3]	Binder	other results
	12 nM	0.00147 s⁻¹	123000 M⁻¹ s⁻¹	2G6 (antibody, human IgG2, kappa, V domains shown, Hybridoma-derived human antibody) VH: QVQLVESGGGVVQPGGSLRLSCAASGFILSDYGMHWVRQAPGKGLEWVTVIWYDGSNKFYVDSVKGRFTISRDNSKNTLYLQMNSLRVEDTAVYYCARGGRLATGHFYYVMDVWGQGTTVTVSS VL: DIQMTQSPSSLSASVGDRVTITCRASQGISSWLAWYQQKPEKAPKSLIYAASSLQSGVPSRFSGSGSGTDFTLTISSLQPEDFATYYCQQYNSYPYTFGQGTKLEIKR	
	1.87 nM	0.000715 s⁻¹	383000 M⁻¹ s⁻¹	6G10 (antibody, human IgG2, kappa, V domains shown, Hybridoma-derived human antibody) VH: not shown VL: AIQLTQSPSSLSASVGDRVTITCRASQGISSALAWYQQKPGKAPKLLIYDASSLESGVPSRFSGSGSGTDFTLTISSLQPEDFATYYCQQFNSYPYTFGQGTKLEIKR	
